Legend:
Experiment in all cases: SPR
[1] = target: C-terminal His6-tagged SAUDG (S. aureus uracil-DNA glycosylase) (S. aureus) (UniProt Q6GJ88)
[2] = target: C-terminal His6-tagged human UDG (uracil-DNA glycosylase) (human)
[3] = target: T1, C-terminal His6-tagged SAUDG (S. aureus uracil-DNA glycosylase) (S. aureus, UniProt Q6GJ88 1-218)
T1 sequence (looked up): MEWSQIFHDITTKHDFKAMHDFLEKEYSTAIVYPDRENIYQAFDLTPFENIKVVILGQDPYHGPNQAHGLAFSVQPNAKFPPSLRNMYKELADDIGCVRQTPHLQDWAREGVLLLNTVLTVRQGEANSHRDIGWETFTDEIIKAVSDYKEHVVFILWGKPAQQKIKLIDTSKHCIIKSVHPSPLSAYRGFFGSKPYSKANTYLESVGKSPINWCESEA

## tag-free SAUGI (Staphylococcus aureus uracil-DNA glycosylase inhibitor) (natural protein)
[1]
  Kd: 1.2 nM
  koff: 0.00296 s⁻¹
  kon: 2.47e+06 M⁻¹ s⁻¹
[2]
  Kd: 2.51 nM
  koff: 0.00124 s⁻¹
  kon: 496000 M⁻¹ s⁻¹

## uracil-DNA glycosylase inhibitor from phage PBS2 (UGI) (from UniProt P14739 1-84) (natural protein)
[2]
  Kd: 0.189 nM
  koff: 0.00119 s⁻¹
  kon: 6.32e+06 M⁻¹ s⁻¹

B1: uracil-DNA glycosylase inhibitor from phage PBS2 (UGI) (natural protein)
chain: MTNLSDIIEKETGKQLVIQESILMLPEEVEEVIGNKPESDILVHTAYDESTDENVMLLTSDAPEYKPWALVIQDSNGENKIKML
[3]
  Kd: 0.685 ± 0.08 nM
  koff: 0.0061 ± 0.00068 s⁻¹
  kon: 8.9e+06 ± 419000 M⁻¹ s⁻¹
